We go through four molecules from patent US20250369970A1 (ACADEMIA SINICA, published 2025).

The chains are these.
B1: p30-091 IgG (antibody, V domains shown)
VH: EVQLVESGGGLVQPGGSLRLSCAASGFTISDYWIHWVRQAPGKGLEWVAYINPHYGLTDYADSVKGRFTISADTSKNTAYLQMNSLRAEDTAVYYCARGWLLDYWGQGTLVTVSS
VL: DIQMTQSPSSLSASVGDRVTITCKSNQNLLDSGDQGTYLNWYQQKPGKAPKLLISDVSNLYSGVPSRFSGSGSGTDFTLTISSLQPEDFATYYCYQATSFPFTFGQGTKVEIKR
B2: p30-077 IgG (antibody, V domains shown)
VH: EVQLVESGGGLVQPGGSLRLSCAASGFTIGDWGIHWVRQAPGKGLEWVAGIWPFGGFTFYADSVKGRFTISADTSKNTAYLQMNSLRAEDTAVYYCARGSFYWDYWGQGTLVTVSS
VL: DIQMTQSPSSLSASVGDRVTITCRASQDVNNNVAWYQQKPGKAPKLLISSPTYLYSGVPSRFSGSGSGTDFTLTISSLQPEDFATYYCQQWYDWPITFGQGTKVEIKR
B3: p30-090 IgG (antibody, V domains shown)
VH: EVQLVESGGGLVQPGGSLRLSCAASGFTIDGGGIHWVRQAPGKGLEWVAGIWPSWGYTYYADSVKGRFTISADTSKNTAYLQMNSLRAEDTAVYYCARGFYWYDYWGQGTLVTVSS
VL: B2 VL with N32D, S49F, S50Y, T52G, Y53G, W91S, Y92W, D93N, W94Y, I96L
B4: p30-052 IgG (antibody, V domains shown)
VH: EVQLVESGGGLVQPGGSLRLSCAASGFTIDSGFIHWVRQAPGKGLEWVAGIGPFWGFTFYADSVKGRFTISADTSKNTAYLQMNSLRAEDTAVYYCARYGSSSYGFDYWGQGTLVTVSS
VL: B2 VL with N30D, T52G, Y53F, W91Y, Y92F, D93N, W94F

Residue numbers refer to the chain shown, from its start.

For the assay, the target named is recombinant p30 protein of ASFV (African swine fever virus (ASFV), UniProt P0C9Z3 1-181). Description: ELISA, IgG titrated on immobilized recombinant p30. For orientation: An ELISA detects its analyte on a solid surface through an enzyme-linked reagent.
By EC50 is commonly meant the concentration that produces a half-maximal response. As to B1, the EC50 was 2.6 ng/mL.
B2: the EC50 worked out at 2.6 ng/mL.
Consider B3, for which the EC50 was found to be 0.9 ng/mL.
With B4, the EC50 is 2 ng/mL.
